Measurements reported in publication PMC5615076, “Prolonged seizure activity causes caspase dependent cleavage and dysfunction of G-protein activated inwardly rectifying potassium channels” (Scientific Reports, 2017).

Target: T1, Gβ1γ2 tagged with yellow fluorescent proteins (YFP-Gβ1 and YFP-Gγ2) (UniProt P62873 1-340; P59768 1-71)
T1 construct: G protein subunit beta-1 (Gβ1), from plasmid pcDNA3.1-YFP-G-protein Gβ1 (gift of N. Gautam); G protein subunit gamma-2 (Gγ2), from plasmid pcDNA3.1-YFP-G-protein-Gγ2 (gift of N. Gautam); Both chains co-expressed and precipitated together with anti-GFP antibodies; also called Gβγ; source: HEK293T, transfected (pcDNA3.1-YFP-G-protein Gβ1 and pcDNA3.1-YFP-G-protein-Gγ2), in lysate
Assay: co-IP; HEK293T cells co-transfected with YFP-Gβ1, YFP-Gγ2 and GIRK2A WT or Y353X (doubled plasmid for Y353X); IP 24 h after transfection with mouse anti-GFP antibodies and Protein A/G agarose; blot with anti-GIRK2 N-terminal antibodies; band ratio GIRK2A/YFP-Gβ1 normalised to GIRK2A WT
Conditions: partners not purified

B1: GIRK2A-Y353X (domain or fragment)
chain: MTMAKLTESMTNVLEGDSMDQDVESPVAIHQPKLPKQARDDLPRHISRDRTKRKIQRYVRKDGKCNVHHGNVRETYRYLTDIFTTLVDLKWRFNLLIFVMVYTVTWLFFGMIWWLIAYIRGDMDHIEDPSWTPCVTNLNGFVSAFLFSIETETTIGYGYRVITDKCPEGIILLLIQSVLGSIVNAFMVGCMFVKISQPKKRAETLVFSTHAVISMRDGKLCLMFRVGDLRNSHIVEASIRAKLIKSKQTSEGEFIPLNQSDINVGYYTGDDRLFLVSPLIISHEINQQSPFWEISKAQLPKEELEIVVILEGIVEATGMTCQARSSYITSEILWGYRFTPVLTMEDGFYEVD
notes: GIRK2A (Kir3.2, cDNA NM_010606.2) with Y353 mutated to a stop codon, so the chain ends at D352 of the 349YEVD352 motif; mimics GIRK2A cleaved by caspase-3; Untagged; made by QuikChange mutagenesis of pcDNA3-GIRK2A; also called GIRK2-Y353X; truncated GIRK2A-Y353X; source: HEK293T, transfected (FuGENE6, pcDNA3-GIRK2A Y353X, doubled amount of plasmid), in lysate
  coimmunoprecipitation, % of wild-type GIRK2A: 50 % of wild-type GIRK2A
